These results are taken from US8273705B2, “Conversion of apoptotic proteins” (The Burnham Institute, priority 2002, dated 2012).

For one assay, the system named is Bcl-2/ΔLoop. Briefly: Co-IP assay with Bcl-2/ΔLoop. It is filed as binding. As for the experimental part: Therefore, TR3/ΔDBD was analyzed as to its interaction with a fragment of Bcl-2 comprising the first 80 amino acids (Bcl-2/1-80). […] The Bcl-2/1-80 fragment encompasses the N-terminal BH4 domain followed by an unstructured loop domain of approximately 50 amino acids length. To determine whether the BH4 domain or the loop region was responsible for binding to TR3/ΔDBD, TR3/ΔDBD interaction with Bcl-2 mutants lacking the BH4 domain (Bcl-2/ΔBH4) or the loop region (Bcl-2/ΔLoop) was analyzed. […] Thus, the loop region of Bcl-2 is involved in binding to TR3.

The subject of another assay is Calu-6 lung cancer cells. Put plainly: DAPI apoptosis assay in Calu-6 cells. It is filed as cell-based. As for the experimental part: (§1) Apoptosis assays—For nuclear morphological change analysis, cells were trypsinized, washed with PBS, fixed with 3.7% paraformaldehyde, and stained with DAPI (4,6-diamidino-2-phenylindole) (50 μg/ml) to visualize the nuclei by UV-microscopy. The percentages of apoptotic cells were determined by counting 300 GFP-positive cells, scoring cells having nuclear fragmentation and/or chromatin condensation.
(§2) DAPI staining was used to study the apoptotic effect of TR3/Bcl-2 interaction. 293T cells were transfected with GFP-TR3/ΔDBD alone or together with Bcl-2. After 36 h, nuclei were stained by DAPI and nuclear fragmentation and chromatin condensation were identified. Cells were also stained with anti-Bcl-2 antibody, followed by TRITC-conjugated secondary antibody (Sigma). Bcl-2 and GFP-ΔDBD expression and nuclear morphology were visualized by fluorescence microscopy, and the two images were overlaid. […] But, when Bcl-2 was cotransfected, a significant amount of transfected cells underwent apoptosis. For example, approximately 4% of cells transfected with either TR3/ΔDBD or Bcl-2 were apoptotic, compared to 35% of cell transfected with both. […] Cotransfection of Bcl-2, however, prevented BAX-induced apoptosis in these cells (see FIG. 4). The effect of Bcl-2 on apoptotic potential of TR3/ΔDBD in lung cancer and breast cancer cells was also investigated.

Assay [1] concerns MCF-7 breast cancer cells. Briefly: DAPI apoptosis assay in MCF-7 cells. It is filed as cell-based. As for the experimental part:
as §1, §2

B1: TR3/ΔDBD: TR3 mutant with the DNA binding domain removed; used as GFP fusion (protein)
chain: MPCIQAQYGTPAPSPGPRDHLASDPLTPEFIKPTMDLASPEAAPAAPTALPSFSTFMDGYTGEFDTFLYQLPGTVQPCSSASSSASSTSSSSATSPASASFKFEDFQVYGCYPGPLSGPVDEALSSSGSDYYGSPCSAPSPSTPSFQPPQLSPWDGSFGHFSPSQTYLVLHRLQCARGFGDWIDSILAFSRSLHSLLVDVPAFACLSALVLITDRHGLQEPRRVEELQNRIASCLKEHVAAVAGEPQPASCLSRLLGKLPELRTLCTQGLQRIFYLKLEDLVPPPPIIDKIFMDTLPF
modifications: left off: large carriers; small tags and cut ends
notes: used as GFP fusion
Turning to B1, in the assay on Bcl-2/ΔLoop, the “interaction with Bcl-2/ΔLoop (Co-IP)” value is “did not”. The apoptosis result in the assay on Calu-6 lung cancer cells (Calu-6, absence of Bcl-2) was “did not show any apoptotic effect”; in the assay on Calu-6 lung cancer cells (Calu-6, co-expression of Bcl-2), “strong induction of apoptosis”; in assay [1] (MCF-7, absence of Bcl-2), “did not show any apoptotic effect”; in assay [1] (MCF-7, co-expression of Bcl-2) it was “strong induction of apoptosis”.
